Assay results taken from PMC3860265 (Journal of molecular biology, 2013).
Read-outs that look alike come from different tables or passages of the source.

What was measured:
Test in all cases: kinase competition assay
SRPK1 [1] = target: T1, SRPK1 (UniProt Q96SB4 1-655)
CLK1 [2] = target: T2, CLK1 (mouse, UniProt P22518 1-483)
SRPK1 [3] = target: T1, SRPK1; remark: listed apart in the source
SRPK1 [4] = target: T1, SRPK1; remark: listed apart in the source
CLK1 [5] = target: T2, CLK1; remark: listed apart in the source
SRPK1 [6] = target: T1, SRPK1; remark: listed apart in the source
CLK1 [7] = target: T2, CLK1; remark: listed apart in the source

T1 sequence (Q96SB4 whole entry): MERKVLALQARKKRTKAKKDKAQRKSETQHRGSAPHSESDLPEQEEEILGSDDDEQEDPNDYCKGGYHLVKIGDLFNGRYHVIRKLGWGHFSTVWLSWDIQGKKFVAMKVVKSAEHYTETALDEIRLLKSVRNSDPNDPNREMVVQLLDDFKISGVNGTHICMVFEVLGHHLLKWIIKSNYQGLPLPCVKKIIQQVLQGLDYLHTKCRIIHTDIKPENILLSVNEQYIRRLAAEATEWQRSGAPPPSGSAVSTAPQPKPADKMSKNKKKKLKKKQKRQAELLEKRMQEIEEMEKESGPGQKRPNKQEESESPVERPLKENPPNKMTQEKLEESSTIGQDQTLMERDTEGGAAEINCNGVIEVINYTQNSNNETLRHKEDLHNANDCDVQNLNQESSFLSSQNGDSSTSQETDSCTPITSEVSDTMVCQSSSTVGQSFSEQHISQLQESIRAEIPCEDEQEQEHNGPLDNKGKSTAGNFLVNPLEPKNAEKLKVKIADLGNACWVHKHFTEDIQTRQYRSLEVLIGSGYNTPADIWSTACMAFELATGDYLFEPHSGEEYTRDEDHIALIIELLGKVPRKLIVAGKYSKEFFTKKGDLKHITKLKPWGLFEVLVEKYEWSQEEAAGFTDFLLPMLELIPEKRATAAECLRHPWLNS
T2 sequence (P22518 whole entry): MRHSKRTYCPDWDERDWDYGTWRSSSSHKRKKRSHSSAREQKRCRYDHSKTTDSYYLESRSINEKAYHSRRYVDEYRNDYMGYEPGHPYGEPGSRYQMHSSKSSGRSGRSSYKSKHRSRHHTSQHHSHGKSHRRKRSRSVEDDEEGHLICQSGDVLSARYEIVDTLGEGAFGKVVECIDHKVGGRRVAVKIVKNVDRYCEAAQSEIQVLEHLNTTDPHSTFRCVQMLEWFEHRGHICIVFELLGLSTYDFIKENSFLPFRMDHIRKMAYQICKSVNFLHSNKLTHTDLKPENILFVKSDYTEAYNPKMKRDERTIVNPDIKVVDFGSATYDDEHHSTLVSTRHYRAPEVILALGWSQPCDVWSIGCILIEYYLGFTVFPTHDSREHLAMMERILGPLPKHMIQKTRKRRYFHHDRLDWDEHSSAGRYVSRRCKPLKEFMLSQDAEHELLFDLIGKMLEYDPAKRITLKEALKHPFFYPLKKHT

Row | Ki (CLK1 [2]) [nM] | appKI (CLK1 [2]) [nM] | Ki (SRPK1 [3]) [nM] | appKI (SRPK1 [3]) [nM] | Binder | other results
1 |  |  |  |  | SR(RRM1-2) (domain or fragment) MSGGGVIRGPAGNNDCRIYVGNLPPDIRTKDIEDVFYKYGAIRDIDLKNRRGGPPFAFVEFEDPRDAEDAVYGRDGYDYDGYRLRVEFPRSGRGTGRGGGGGGGGGAPRGRYGPPSRRSENRVVVSGLPPSGSWQDLKDHMREAGDVCYADVYRDGTGVVEFVRKEDMTYAVRKLDNTKFRSHEGETAYIRVKVD | Ki (SRPK1 [1]): 170 ± 30 nM
2 | 290 ± 20 | 440 ± 40 | 350 ± 200 | 520 ± 40 | AYIRVKVDGPRSPSYGRSRSRSRSRSRSRSRSN (domain or fragment, UniProt Q07955 188-220, looked up) [SR(188–220)] | 
3 |  |  |  |  | SR(RRM2) (domain or fragment) NRVVVSGLPPSGSWQDLKDHMREAGDVCYADVYRDGTGVVEFVRKEDMTYAVRKLDNTKFRSHEGETAYIRVKVD | Ki (SRPK1 [1]): 2900 ± 500 nM
4 |  |  |  |  | SR(ΔRRM2) (domain or fragment) MSGGGVIRGPAGNNDCRIYVGNLPPDIRTKDIEDVFYKYGAIRDIDLKNRRGGPPFAFVEFEDPRDAEDAVYGRDGYDYDGYRLRVEFPRSGRGTGRGGGGGGGGGAPRGRYGPPSRRSEGPRSPSYGRSRSRSRSRSRSRSRSNSRSRSYSPRRSRGSPRYSPRHSRSRSRT | Ki (SRPK1 [4]): 300 ± 100 nM; Ki (CLK1 [5]): 130 ± 30 nM
5 |  |  |  |  | SR(P200,228,235A) (natural protein, UniProt Q07955 1-248, looked up) MSGGGVIRGPAGNNDCRIYVGNLPPDIRTKDIEDVFYKYGAIRDIDLKNRRGGPPFAFVEFEDPRDAEDAVYGRDGYDYDGYRLRVEFPRSGRGTGRGGGGGGGGGAPRGRYGPPSRRSENRVVVSGLPPSGSWQDLKDHMREAGDVCYADVYRDGTGVVEFVRKEDMTYAVRKLDNTKFRSHEGETAYIRVKVDGPRSASYGRSRSRSRSRSRSRSRSNSRSRSYSARRSRGSARYSPRHSRSRSRT | Ki (SRPK1 [6]): 33 ± 3 nM; appKI (SRPK1 [6]): 80 ± 8 nM; Ki (CLK1 [7]): 130 ± 20 nM; appKI (CLK1 [7]): 440 ± 70 nM
6 | 120 ± 10 | 180 ± 20 | 110 ± 7 | 170 ± 10 | AYIRVKVDGPRSPSYGRSRSRSRSRSRSRSRSNSRSRSYSPRRSRGSP (domain or fragment, UniProt Q07955 188-235, looked up) [SR(188–235)] | 
7 | 240 ± 30 | 370 ± 40 | 190 ± 30 | 280 ± 50 | AYIRVKVDGPRSPSYGRSRSRSRSRSRSRSRSNSRSRSYSP (domain or fragment, UniProt Q07955 188-228, looked up) [SR(188–228)] | 
